Here are results for 1 substance from article PMC10384427.

This experiment has as its target SARS-CoV-2 N protein K65R, not SUMOylated (SARS-CoV-2) (UniProt P0DTC9). As to the kind of experiment: FRET or BRET.

With “SARS-CoV-2 N protein K65R, not SUMOylated (from UniProt P0DTC9 1-419) (natural protein)”, the equilibrium dissociation constant (Kd) turned out to be 1.38 µM.
